One assay concerns the target T1, PPARγ (Mus musculus, UniProt P37238).
T1 construct: host or cells: lal-/- mice (lung)
T1 sequence (P37238 1-505): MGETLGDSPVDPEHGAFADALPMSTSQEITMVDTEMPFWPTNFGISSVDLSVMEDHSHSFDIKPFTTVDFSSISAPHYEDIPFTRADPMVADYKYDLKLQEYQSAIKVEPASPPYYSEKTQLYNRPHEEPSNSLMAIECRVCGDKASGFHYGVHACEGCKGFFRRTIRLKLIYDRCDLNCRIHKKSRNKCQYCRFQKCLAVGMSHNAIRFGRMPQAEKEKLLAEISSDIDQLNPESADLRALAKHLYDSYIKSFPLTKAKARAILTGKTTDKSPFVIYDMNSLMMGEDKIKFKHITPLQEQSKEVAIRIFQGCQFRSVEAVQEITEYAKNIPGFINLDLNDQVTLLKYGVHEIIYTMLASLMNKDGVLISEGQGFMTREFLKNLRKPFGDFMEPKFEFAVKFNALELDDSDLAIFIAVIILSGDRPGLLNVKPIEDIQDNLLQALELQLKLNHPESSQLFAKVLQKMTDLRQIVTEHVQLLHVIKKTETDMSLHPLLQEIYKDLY
The settings on record: previously reported; cited from earlier work.

The next assay has as its system B16 melanoma cells. The experiment in a line: Mouse tumor growth model, pre-treated MDSCs co-injected subcutaneously with B16 melanoma cells. The assay is classed as in vivo. The protocol: For in vitro PPARγ ligand treatment, 9-HODE (Cayman Chemical Co., Ann Arbor, Mich., USA) was added into the culture medium of MDSCs to a final concentration of 20 μmol/L for 24 or 48 hours. For the study of the effect of PPARγ ligand on the mTOR signaling pathway, bone marrow cells were treated with 9-HODE (20 μmol/L) for 2 hours.
The tumor growth and metastasis model were described in Zhao et al., Oncogene. 2015; 34:1938-48. MDSCs and B16 melanoma cells were collected separately. A pilot study was performed to determine the best ratio between MDSCs and B16 melanoma cells. To test the tumor growth potential, 6×10^5 pre-treated MDSCs and 2×10^5 B16 melanoma cells were mixed, centrifuged and re-suspended in 100 μL PBS, and then injected subcutaneously into the flank region of 3-month old recipient lal^+/+ mice. Tumor volume (length×width^2×π/6) was monitored every week for 4 weeks. To test the metastasis potential, 2×10^6 pre-treated MDSCs and 5×10^5 B16 melanoma cells were mixed and incubated at 37° C., 5% CO2 for 30 minutes. After the incubation, cells were centrifuged, re-suspended, and injected intravenously into 3-month old lal^+/+ mice. Two weeks after the injection, the mice were sacrificed and the lungs were inflated with 4% paraformaldehyde for examination of metastasis.

Assay [1] is described as follows: Histology and morphometry of organs in CCSP-Tg/KO mice (lung epithelial hLAL expression). The assay is classed as in vivo, mouse. From the text: Wild-type (lal^+/+) and lal^−/− mice of the FVB/N background were bred in house. CCSP-rtTA/(TetO)7-CMV-hLAL; lal^−/− (CCSP-Tg/KO) triple mice were generated by crossbreeding previously made CCSP-rtTA transgenic mice and (TetO)7-CMV-hLAL transgenic mice into lal^−/− mice. This triple transgenic mouse model is lung AT II epithelial cells-specific Tet-on expression of wild-type human LAL (hLAL) in lal^−/− mice under the control of the CCSP promoter. All scientific protocols involving the use of animals were approved by the Institutional Animal Care and Use Committee of Indiana University School of Medicine and followed guidelines established by the Panel on Euthanasia of the American Veterinary Medical Association. Animals were housed under Institutional Animal Care and Use Committee-approved conditions in a secured animal facility at Indiana University School of Medicine.
The lungs were harvested and fixed with 4% paraformaldehyde in PBS at 4° C. overnight. After embedding in paraffin, tissue sections were cut to 5 μm thick. Hematoxylin and eosin (H&E) staining was performed by the Histological Core Facility, Department of Pathology and Laboratory Medicine, Indiana University. […] Images were analyzed by Nikon NIS Elements imaging software. […] The alveoli were assessed by area, diameter and perimeter using the integrated morphometry analysis tool. […]

Another assay relates to CD4+ T cells. The assay is described as follows: T cell proliferation assay with BALF cells of CCSP-Tg/KO mice. It counts as cell-based, mouse. The note with it: BALF cells from doxycycline-treated CCSP-Tg/KO mice; BALF cells:CD4+ T cells 1:5, 4 days. The protocol: To determine the immunosuppressive effects of BALF cells, BALF was harvested by PBS. After the centrifugation, the resulting cell pellets were collected and used. CD4^+ T cells were prepared and CFSE labeled as we previously described (15). Labeled CD4^+ T cells were co-cultured with BALF cells in 96-well plates pre-coated with anti-CD3 monoclonal antibody (mAb) (2 μg/mL) and anti-CD28 mAb (5 μg/mL) at 37° C., 5% CO2 for 4 days. The ratio of BALF cells:CD4^+ T cells was 1:5. Proliferation of CD4^+ T cells was evaluated as CFSE dilution by FACS.

Assay [2] relates to LLC or B16 melanoma cells. The experiment in a line: In vitro BALF treatment of tumor cells (proliferation, wound healing). It counts as cell-based, mouse. As for the experimental part: BALF was harvested by 1 mL PBS, and cells were removed by centrifugation. To determine the effect of BALF on tumor cell proliferation, B16 melanoma or LLC cells (5×10^3) were seeded into a well of 96-well plates in 100 μL DMEM supplemented with 10% FBS, and then treated with 100 μL BALF harvested from lal^+/+, lal^−/− or CCSP-Tg/KO triple mice. Seventy-two hours later, the number of B16 melanoma or LLC cells was counted.
To analyze the effects of BALF on tumor cell or EC migration, in vitro wound healing assays were performed. Briefly, tumor cells or ECs were seeded at a density of 1.5×10^5 cells/well into a 24-well plate and incubated overnight to form a confluent monolayer. Scratch was created by scraping the cell monolayer in a straight line with a p200 pipet tip. After washing 3 times with PBS, the medium was changed with 250 μL DMEM containing 10% FBS and 5 μg/mL mitomycin C (Sigma-Aldrich). Then 250 μL BALF from lal^+/+, lal^−/− or CCSP-Tg/KO triple mice were added to the well. Cells were kept on culture at 37° C., 5% CO2. Images were taken at 0 and 15 hours after creating the scratch. Migration was estimated by measuring the distances from one side of the scratch to the other side using Image Pro-Plus software (Media Cybernetics, Rockville, Md., USA).

9-hydroxyoctadecadienoic acid [9-HODE]: the “lal−/− pulmonary inflammation and aberrant gene expression” value on PPARγ is given as “significantly rescued”. Moreover, the “tumor size vs ethanol-treated lal−/− Ly6G+ cells” value in the assay on B16 melanoma cells (C57BL/6 Ly6G+ cells into C57BL/6 mice, 7, 14 and 21 days post-injection) was “significantly smaller”. Moreover, the tumor volume in the assay on B16 melanoma cells (lal−/− Ly6G+ cells pre-treated 20 μmol/L 24 hours, co-injected s.c. with B16 cells into lal+/+ FVB/N mice, one week after injection, ethanol control 77.6±16.4) was 36.3±12.4 mm^3.

B1: hLAL: human lysosomal acid lipase expressed from a doxycycline-controlled tissue-specific transgene in lal−/− mice; never administered as a protein (protein)
chain: GPKPVVFLQHGLLADSSNWVTNLANSSLGFILADAGFDVWMGNSRGNTWSRKHKTLSVSQDEFWAFSYDEMAKYDLPASINFILNKTGQEQVYYVGHSQGTTIGFIAFSQIPELAKRIKMFFALGPVASVAFCTSPMAKLGRLPDHLIKDLFGDKEFLPQSAFLKWLGTHVCTHVILKELCGNLCFLLCGFNERNLNMSRVDVYTTHSPAGTSVQNMLHWSQAVKFQKFQAFDWGSSAKNYFHYNQSYPPTYNVKDMLVPTAVWSGGHDWLADVYDVNILLTQITNLVFHESIPEWEHLDFIWGLDAPWRLYNKIINLMRKYQ
modifications: left off: small tags and cut ends
notes: human lysosomal acid lipase expressed from a doxycycline-controlled tissue-specific transgene in lal−/− mice; never administered as a protein
B1: the “liver and spleen pathology” value in assay [1] (doxycycline-treated vs untreated CCSP-Tg/KO mice) was “no improvement in the liver and spleen”. Also, the “lung damage (emphysema, alveolar area, diameter, perimeter)” value in assay [1] (lung epithelial expression, doxycycline-treated CCSP-Tg/KO mice) is listed as “partially restored”. Moreover, in the assay with CD4+ T cells, the “inhibition of T cell proliferation by BALF cells” value is “reduced inhibition on T cell proliferation”. Also, the “tumor cell proliferation in vitro” value in assay [2] (LLC or B16 cells cultured 72 hours with BALF from doxycycline-treated CCSP-Tg/KO mice) is recorded as “reduced”. Also, the “tumor cell migration in vitro” value in assay [2] (LLC or B16 cells, wound healing 15 hours, BALF from doxycycline-treated CCSP-Tg/KO mice, mitomycin C) is listed as “reduced”.

Source of the values: patent US10857209B2, “Lysosomal acid lipase and PPAR gamma ligands as immune therapies for cancer treatment” (Indiana University Research and Technology Corporation, priority 2016, dated 2020).
